# T1: K751E (Drosophila melanogaster, UniProt Q9W1K4 512-819, K751E)
# T1 sequence: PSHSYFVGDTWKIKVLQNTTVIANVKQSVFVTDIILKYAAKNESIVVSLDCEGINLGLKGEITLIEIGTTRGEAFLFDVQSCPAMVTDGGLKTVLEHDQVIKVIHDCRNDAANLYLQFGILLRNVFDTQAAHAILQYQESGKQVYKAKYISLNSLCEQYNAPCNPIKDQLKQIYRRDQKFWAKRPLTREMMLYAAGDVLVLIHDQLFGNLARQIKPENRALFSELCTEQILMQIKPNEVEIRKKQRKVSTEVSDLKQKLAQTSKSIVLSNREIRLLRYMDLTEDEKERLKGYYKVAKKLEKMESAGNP
# T2: R753A (Drosophila melanogaster, UniProt Q9W1K4 512-819, R753A)
# T2 sequence: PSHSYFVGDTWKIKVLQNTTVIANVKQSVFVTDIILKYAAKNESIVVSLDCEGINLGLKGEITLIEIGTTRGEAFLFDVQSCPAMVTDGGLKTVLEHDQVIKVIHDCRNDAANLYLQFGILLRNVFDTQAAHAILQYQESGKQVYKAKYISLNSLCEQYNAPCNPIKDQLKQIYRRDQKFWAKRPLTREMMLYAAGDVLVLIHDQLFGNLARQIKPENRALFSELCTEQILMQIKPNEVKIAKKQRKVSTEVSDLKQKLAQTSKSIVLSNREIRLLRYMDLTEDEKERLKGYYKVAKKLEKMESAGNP
# T3: K678A (Drosophila melanogaster, UniProt Q9W1K4 512-819, K678A)
# T3 sequence: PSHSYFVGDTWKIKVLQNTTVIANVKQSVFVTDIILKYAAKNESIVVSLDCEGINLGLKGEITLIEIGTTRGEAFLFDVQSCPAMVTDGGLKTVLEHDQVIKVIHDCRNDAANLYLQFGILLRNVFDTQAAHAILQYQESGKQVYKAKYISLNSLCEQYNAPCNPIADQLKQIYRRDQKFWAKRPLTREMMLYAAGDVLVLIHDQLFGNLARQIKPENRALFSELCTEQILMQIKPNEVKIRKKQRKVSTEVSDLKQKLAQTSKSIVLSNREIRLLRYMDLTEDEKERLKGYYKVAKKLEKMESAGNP
# T4: K758E (Drosophila melanogaster, UniProt Q9W1K4 512-819, K758E)
# T4 sequence: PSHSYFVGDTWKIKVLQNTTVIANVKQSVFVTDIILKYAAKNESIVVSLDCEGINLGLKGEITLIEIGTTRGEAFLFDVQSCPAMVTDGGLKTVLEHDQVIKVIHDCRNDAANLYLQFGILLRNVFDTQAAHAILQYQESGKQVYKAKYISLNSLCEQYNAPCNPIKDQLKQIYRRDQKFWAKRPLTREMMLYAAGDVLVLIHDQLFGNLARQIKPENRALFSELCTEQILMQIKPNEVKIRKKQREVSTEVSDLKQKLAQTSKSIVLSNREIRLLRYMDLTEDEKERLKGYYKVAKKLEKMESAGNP
# T5: GST-Egl512-819 (Drosophila melanogaster, UniProt Q9W1K4 512-819)
# T5 sequence: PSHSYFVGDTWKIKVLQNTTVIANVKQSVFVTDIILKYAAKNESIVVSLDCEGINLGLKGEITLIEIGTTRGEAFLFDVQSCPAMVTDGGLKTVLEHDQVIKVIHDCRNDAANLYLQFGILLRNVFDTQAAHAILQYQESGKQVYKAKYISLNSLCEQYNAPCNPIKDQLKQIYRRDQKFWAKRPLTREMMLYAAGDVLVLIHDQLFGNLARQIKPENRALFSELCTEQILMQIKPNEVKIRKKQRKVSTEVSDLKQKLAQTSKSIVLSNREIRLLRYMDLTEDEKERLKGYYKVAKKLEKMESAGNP
# T6: K659E/K754E/R788E (Drosophila melanogaster, UniProt Q9W1K4 512-819, K659E;K754E;R788E)
# T6 sequence: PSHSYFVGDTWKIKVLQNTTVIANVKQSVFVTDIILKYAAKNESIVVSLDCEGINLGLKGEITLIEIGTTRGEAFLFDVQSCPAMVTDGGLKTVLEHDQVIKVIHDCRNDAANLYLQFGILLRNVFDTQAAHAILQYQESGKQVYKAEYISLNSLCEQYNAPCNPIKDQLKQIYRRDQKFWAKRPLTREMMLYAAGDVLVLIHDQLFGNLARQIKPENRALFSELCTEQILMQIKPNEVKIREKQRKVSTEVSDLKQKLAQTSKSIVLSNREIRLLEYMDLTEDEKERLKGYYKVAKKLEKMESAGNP
# Legend:
# [1] = target: T1, K751E; assay: fluorescence anisotropy; FA: 20 mM HEPES-NaOH pH 7.5, 100 mM NaCl, 10% glycerol, 20 C, 10 nM FAM-RNA; competition: 150 nM Egl512-819 + 10 nM FAM-K10 TLS, same buffer; details: protein: recombinant; tags: N-terminal GST; label: 5'-6-FAM; hairpin with two bulges
# [2] = target: T2, R753A; assay: as above; details: protein: recombinant; tags: N-terminal GST; label: 5'-6-FAM; hairpin with two bulges
# [3] = target: T3, K678A; assay: as above; details: protein: recombinant; tags: N-terminal GST; label: 5'-6-FAM; hairpin with two bulges
# [4] = target: T4, K758E; assay: as above; details: protein: recombinant; tags: N-terminal GST; label: 5'-6-FAM; hairpin with two bulges
# [5] = target: T5, GST-Egl512-819; assay: as above; details: protein: recombinant; tags: N-terminal GST (TEV site); label: 5'-6-FAM; hairpin with two bulges
# [6] = target: T6, K659E/K754E/R788E; assay: fluorescence anisotropy; binding not detected; FA: 20 mM HEPES-NaOH pH 7.5, 100 mM NaCl, 10% glycerol, 20 C, 10 nM FAM-RNA; competition: 150 nM Egl512-819 + 10 nM FAM-K10 TLS, same buffer; details: protein: recombinant; tags: N-terminal GST; label: 5'-6-FAM; hairpin with two bulges
binder,measurement,setting,value
CUUGAUUGUAUUUUUAAAUUAAUUCUUAAAAACUACAAAUUAAG (structured_RNA) [K10 TLS (FAM)],Kd,[1],139 ± 28 nM
same,Kd,[2],95 ± 5 nM
same,Kd,[3],295 ± 8 nM
same,Kd,[4],380 ± 65 nM
same,Kd,[5],130 ± 6 nM
same,binding result,[6],no binding

# Source: publication doi:10.1101/2025.08.03.668247, “The structure of Egalitarian in complex with the K10 mRNA localization signal reveals a modular binding surface required for function”
